The target of assay [1] is T1, shFcRn (human, UniProt P55899). The assay can be described thus: SPR pH 6.0.
Assay [2] has as its target T1, shFcRn. The experiment in a line: SPR pH 7.4.
For assay [3], the target named is T2, mouse FcRn (mouse, UniProt Q61559).
T2 chain 1: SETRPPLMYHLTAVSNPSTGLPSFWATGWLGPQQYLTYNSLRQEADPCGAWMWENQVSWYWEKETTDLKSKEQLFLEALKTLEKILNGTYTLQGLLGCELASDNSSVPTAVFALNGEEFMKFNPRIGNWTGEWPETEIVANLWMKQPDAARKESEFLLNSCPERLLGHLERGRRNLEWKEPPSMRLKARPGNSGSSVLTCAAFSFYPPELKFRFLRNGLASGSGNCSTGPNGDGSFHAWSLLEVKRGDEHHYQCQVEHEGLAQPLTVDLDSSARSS
T2 chain 2: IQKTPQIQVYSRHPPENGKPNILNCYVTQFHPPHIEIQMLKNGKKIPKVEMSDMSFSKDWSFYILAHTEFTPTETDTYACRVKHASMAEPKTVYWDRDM
The experiment in a line: FACS pH 6.0.

Assay [4] addresses T3, rat FcRn (rat, UniProt P13599).
T3 chain 1: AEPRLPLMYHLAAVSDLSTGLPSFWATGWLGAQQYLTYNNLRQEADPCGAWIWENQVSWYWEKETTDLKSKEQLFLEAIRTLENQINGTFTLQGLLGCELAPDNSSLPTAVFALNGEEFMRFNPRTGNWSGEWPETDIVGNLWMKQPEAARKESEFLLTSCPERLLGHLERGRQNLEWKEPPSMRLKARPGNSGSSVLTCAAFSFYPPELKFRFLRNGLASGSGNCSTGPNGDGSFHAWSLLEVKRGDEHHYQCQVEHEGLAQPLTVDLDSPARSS
T3 chain 2: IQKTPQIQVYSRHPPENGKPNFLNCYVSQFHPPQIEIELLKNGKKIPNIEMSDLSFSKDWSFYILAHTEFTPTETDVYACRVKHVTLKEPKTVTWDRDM
The assay can be described thus: FACS pH 7.4.

Assay [5] addresses T1, shFcRn. The experiment in a line: SPR pH 6.0. This is another data set of the same source.
Assay [6] addresses T1, shFcRn. The experiment in a line: SPR pH 7.4. The source holds these as a separate data set.
For assay [7], the target named is T1, shFcRn. The assay can be described thus: SPR pH 7.4. The source holds these as a separate data set.
The target of assay [8] is T1, shFcRn. The assay can be described thus: SPR pH 6.0. The source holds these as a separate data set.

We go through 15 molecules from patent publication EP3010938.

T1 sequence (P55899 24-297, chain 1 of 2): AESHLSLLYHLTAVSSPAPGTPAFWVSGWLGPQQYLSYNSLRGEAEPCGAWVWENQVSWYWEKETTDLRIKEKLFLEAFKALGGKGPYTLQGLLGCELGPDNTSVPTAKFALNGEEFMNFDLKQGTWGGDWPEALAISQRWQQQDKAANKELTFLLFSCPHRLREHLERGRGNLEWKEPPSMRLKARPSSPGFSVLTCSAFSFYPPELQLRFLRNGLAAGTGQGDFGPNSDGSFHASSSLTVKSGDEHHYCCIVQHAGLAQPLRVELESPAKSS
T1 sequence (chain, as listed by the source, chain 2 of 2): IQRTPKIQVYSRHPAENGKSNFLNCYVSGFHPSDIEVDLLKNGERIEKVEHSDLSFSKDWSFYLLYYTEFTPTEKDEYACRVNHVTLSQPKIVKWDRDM

B1: HL161-6C (antibody)
chain 1: QVQLVESGAEVKKPGASVKVSCKASGYTFTSYYMHWVRQAPGQGLEWMGIINPSGGSTSYAQKFQGRVTMTRDTSTSTVYMELSSLRSEDTAVYYCARGGGAFDIWGQGTMVTVSS
chain 2: DIQMTQSPSSVSASVGDRVTITCRASQGISNWVAWYQQKPGKAPKLLIYAASSLQSGVPSRFSGSGSGTDFTLTISSLQPEDFAIYYCQQGHSFPYTFGQGTKVEIK
Usually Kd stands for the free concentration of one partner at which half of the binding sites on the other are occupied at equilibrium, for simple one-to-one binding. For B1, the Kd in assay [1] is 1.9 nM; in assay [2], 6.6 nM.

B2: HL161-11H (antibody)
chain 1: QMQLVESGGGLVQPGRSLRLSCAASGFTFSSYAMHWVRQAPGKGLEWVAVISYDGSNKYYADSVKGRFTISRDNSKNTLYLQMNSLRSEDTAVYYCSRGSGGRDAFDVWGQGTMITVSS
chain 2: DIQMTQSPSTLSASVGDRVTITCRASQSISSRLAWYQQKPGKAPKLLIYKASSLETGVPSRFSGSGSGTEFTLTISSLQPDDFATYYCQQTNSFPLTFGGGTKVEIK
With B2, the binding result in assay [3] and in assay [4] was “no binding” in each case. The dissociation constant Kd in assay [1] is 0.35 nM; in assay [2] it was 0.9 nM.

B3: 11Hg (antibody)
chain 1: QVQLVESGGGVVQPGRSLRLSCAASGFTFSSYAMHWVRQAPGKGLEWVAVISYDGSNKYYADSVKGRFTISRDNSKNTLYLQMNSLRAEDTAVYYCARGSGGRDAFDVWGQGTMITVSS
chain 2: DIQMTQSPSTLSASVGDRVTITCRASQSISSRLAWYQQKPGKAPKLLIYKASSLETGVPSRFSGSGSGTEFTLTISSLQPDDFATYYCQQTNSFPLTFGGGTKVEIK
A word on the koff: it is the first-order rate constant of dissociation. Read a low koff as slow dissociation. As to B3, the koff was 0.000434 s⁻¹ in assay [5] and 0.000433 s⁻¹ in assay [6].

B4: HL161-11G (antibody)
chain 1: QMQLVESGGGVVQPGRSLRLSCVGSGFNFNSYGIHWVRQAPGKGLEWVGGIFYDGSQVKYADSVKGRVSISRDNSKNTAYLQMNSLRAEDTAVYYCARRNLLDYWGQGTVVTVSS
chain 2: NFMLTQPASVSGSPGQSITISCTGSSSDVGGYNYVSWYQQHPGKAPQLIIYDVTKRPSGVSNRFSGSKSGNSASLTISGLQAEDEADYYCSSYSSSTFYVFGTGTKVTVL
In assay [1], B4 showed a dissociation constant (Kd) of 0.16 nM.

B5: A12-H04 (antibody)
chain 1: EVQLVESGGGLVQPGRSLRLSCAASGFTFDEYGMHWVRQAPGKGLEWVSGVSWNSGSIAYADSVRGRFTISRDNAKNSLYLQMNSLRAEDTALYYCAKGRLLDVWGQGTTVTVSS
chain 2: QSALTQPASVSGSPGQSITISCTGSSSDVGGYNYVSWYQQHPGKAPKLMIYDVTKRPSGVSNRFSGSKSGNTASLTISGLQAEDEADYYGAYSNTNFYVFGTGTKVTVL
Take B5: the off-rate (koff) in assay [7] amounted to 0.00235 s⁻¹; in assay [8] it was 0.00022 s⁻¹.

B6: A12-E04 (antibody)
chain 1: EVQLVESGGGLVQPGRSLRLSCAASGFTFDEYGMHWVRQAPGKGLEWVSGVSWNSGSIAYADSVRGRFTISRDNAKNSLYLQMNSLRAEDTALYYCAKGRLFDVWGQGTTVTVSS
chain 2: QSALTQPASVSGSPGQSITISCTGSSSDVGGYNYVSWYQQHPGKAPKLMIYDVTKRPSGVSNRFSGSKSGNTASLTISGLQAEDEADYYGSYSNSNFYVFGTGTKVTVL
As for B6, the results for the koff in assay [7] and in assay [8] were 0.00137 s⁻¹ and 0.000132 s⁻¹, respectively.

B7: A11-C07 (antibody)
chain 1: EVQLVESGGGLVQPGRSLRLSCAASGFTFDEYGMHWVRQAPGKGLEWVSGVSWNSGSIAYADSVRGRFTISRDNAKNSLYLQMNSLRAEDTALYYCAKGRYSDVWGQGTTVTVSS
chain 2: QSALTQPASVSGSPGQSITISCTGSSSDVGGYNYVSWYQQHPGKAPKLMIYDVTKRPSGVSNRFSGSKSGNTASLTISGLQAEDEADYYASYSSNTFYVFGTGTKVTVL
B7: the off-rate (koff) in assay [7] stood at 0.00248 s⁻¹; in assay [8], 0.000393 s⁻¹.

B8: A12-E01 (antibody)
chain 1: EVQLVESGGGLVQPGRSLRLSCAASGFTFDEYGMHWVRQAPGKGLEWVSGVSWNSGSIAYADSVRGRFTISRDNAKNSLYLQMNSLRAEDTALYYCAKSRSMDVWGQGTTVTVSS
chain 2: QSALTQPASVSGSPGQSITISCTGSSSDVGGYNYVSWYQQHPGKAPKLMIYDVTKRPSGVSNRFSGSKSGNTASLTISGLQAEDEADYYGSYSNNNFYVFGTGTKVTVL
Consider B8, for which the results for the off-rate constant (koff) in assay [7] and in assay [8] were 0.00115 s⁻¹ and 5.99e-05 s⁻¹, respectively.

B9: A12-C09 (antibody)
chain 1: EVQLVESGGGLVQPGRSLRLSCAASGFTFDEYGMHWVRQAPGKGLEWVSGVSWNSGSIAYADSVRGRFTISRDNAKNSLYLQMNSLRAEDTALYYCAKGRTMDVWGQGTTVTVSS
chain 2: QSALTQPASVSGSPGQSITISCTGSSSDVGGYNYVSWYQQHPGKAPKLMIYDVTKRPSGVSNRFSGSKSGNTASLTISGLQAEDEADYYGSYSSNTFYVFGTGTKVTVL
With B9, the off-rate constant (koff) in assay [7] was determined as 0.000909 s⁻¹; in assay [8], 0.000177 s⁻¹.

B10: A12-F02 (antibody)
chain 1: EVQLVESGGGLVQPGRSLRLSCAASGFTFDEYGMHWVRQAPGKGLEWVSGVSWNSGSIAYADSVRGRFTISRDNAKNSLYLQMNSLRAEDTALYYCAKGRYLDVWGQGTTVTVSS
chain 2: QSALTQPASVSGSPGQSITISCTGSSSDVGGYNYVSWYQQHPGKAPKLMIYDVTKRPSGVSNRFSGSKSGNTASLTISGLQAEDEADYYGSYDSNTFYVFGTGTKVTVL
B10: the values for the dissociation rate constant (koff) in assay [7] and in assay [8] were 0.000225 s⁻¹ and 0.000305 s⁻¹, respectively.

B11: A11-G06 (antibody)
chain 1: EVQLVESGGGLVQPGRSLRLSCAASGFTFDEYGMHWVRQAPGKGLEWVSGVSWNSGSIAYADSVRGRFTISRDNAKNSLYLQMNSLRAEDTALYYCAKGRLMDVWGQGTTVTVSS
chain 2: QSALTQPASVSGSPGQSITISCTGSSSDVGGYNYVSWYQQHPGKAPKLMIYDVTKRPSGVSNRFSGSKSGNTASLTISGLQAEDEADYYGSYNNNTFYVFGTGTKVTVL
Regarding B11, the off-rate (koff) in assay [7] was found to be 0.000496 s⁻¹; in assay [8], 0.000225 s⁻¹.

B12: 1Ag (antibody)
chain 1: EVQLVESGGGLVQPGRSLRLSCAASGFTFDEYGMHWVRQAPGKGLEWVSGVSWNSGSIAYADSVRGRFTISRDNAKNSLYLQMNSLRAEDTALYYCAKGRSMDVWGQGTTVTVSS
chain 2: QSALTQPASVSGSPGQSITISCTGSSSDVGGYNYVSWYQQHPGKAPKLMIYDVTKRPSGVSNRFSGSKSGNTASLTISGLQAEDEADYYCSSYSSSTFYVFGTGTKVTVL
Take B12: the dissociation rate constant (koff) in assay [7] stood at 0.000212 s⁻¹; in assay [8], 0.000222 s⁻¹.

B13: A12-E05 (antibody)
chain 1: EVQLVESGGGLVQPGRSLRLSCAASGFTFDEYGMHWVRQAPGKGLEWVSGVSWNSGSIAYADSVRGRFTISRDNAKNSLYLQMNSLRAEDTALYYCAKGRILDVWGQGTTVTVSS
chain 2: QSALTQPASVSGSPGQSITISCTGSSSDVGGYNYVSWYQQHPGKAPKLMIYDVTKRPSGVSNRFSGSKSGNTASLTISGLQAEDEADYYGSYNNSTFYVFGTGTKVTVL
For the molecule B13, the koff in assay [7] came to 0.00222 s⁻¹; in assay [8], 0.000216 s⁻¹.

B14: HL161-1A (antibody)
chain 1: QVQLVQSGGGLVQPGRSLRLSCAASGFSFGEYGMHWVRQAPGKGLEWVSGVSWNSGSIAYADSVRGRFTISRDNSKNSLYLQMNSLRAEDTAVYYCARGRSMDVWGQGTTVTVSS
chain 2: NFMLTQPASVSGSPGQTITISCTGSSSDVGGYNYVSWYQQHPGKAPQLIIYDVTKRPSGVSNRFSGSKSGNSASLTISGLQAEDEADYYCSSYSSSTFYVFGTGTKVTVL
As for B14, the Kd in assay [1] was 0.8 nM.

B15: HL161-10E (antibody)
chain 1: QVQLVESGGGLVQPGGSLRLSCAASGFRFSNFAMTWVRQAPGKGLEWVSTLSGSGGSIHHADSVKGRFTISRDNSKNTLYLQMNSLRAEDTAVYYCAKGPLRGQPAYLDPWGQGTLVTVSS
chain 2: SYELTQPLSVSMSPGQTARITCSGDALSKQYASWYQLKPGQAPVVVMYKDTERPSGIPDRFSGSSSGTTVTLTISGVQAEDEADYYCQSITDKSGTDVIFGGGTKLTVL
For the molecule B15, the Kd in assay [1] was determined as 3.8 nM; in assay [2], 26 nM.
